Reference: the supplement of paper PMC5998384

What was measured:
HeLa Kyoto [1] = experiment: solubility in G1/S (NP-40 vs SDS abundance) (log2 ratio); higher = more soluble; settings: cell cycle stage: G1/S
HeLa Kyoto [2] = experiment: melting temperature (median over replicates), in situ; higher = more thermally stable
HeLa Kyoto [3] = experiment: solubility change mitosis vs G1/S (difference of NP-40 vs SDS log2 ratios) (log2 ratio difference); higher = more soluble in mitosis
HeLa Kyoto [4] = experiment: thermal stability score vs G1/S (z-score of summed log2 fold changes over temperatures); higher = more thermally stable than in G1/S
[5] = cell cycle stage: early G1 (4.5 h after nocodazole release)
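Wherever melting temperature (median over replicates), in situ is given: HeLa Kyoto cells synchronized by double thymidine or nocodazole block, proteins quantified by TMT10plex mass spectrometry, three independent biological replicates.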
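Wherever solubility change mitosis vs G1/S (difference of NP-40 vs SDS log2 ratios) is given: synchronized HeLa Kyoto cells (double thymidine block for G1/S, nocodazole release for mitosis), protein amounts in NP-40 versus SDS lysates quantified by mass spectrometry, three biological replicates.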
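Wherever solubility in G1/S (NP-40 vs SDS abundance) is given: HeLa Kyoto cells arrested at G1/S by double thymidine block, proteins quantified by TMT10plex mass spectrometry in mild NP-40 versus SDS extracts, three biological replicates.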
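Wherever thermal stability score vs G1/S (z-score of summed log2 fold changes over temperatures) is given: synchronized HeLa Kyoto cells, proteins quantified by TMT10plex mass spectrometry, three biological replicates, mitosis taken 0.5 h after nocodazole release, G1/S directly after double thymidine block.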

Sequence | solubility in G1/S (log2) (HeLa Kyoto [1]) | melting temperature (HeLa Kyoto [2]; cell cycle stage: G1/S) [°C] | melting temperature (HeLa Kyoto [2]; cell cycle stage: mitosis) [°C] | solubility change mitosis (log2) (HeLa Kyoto [3]) | thermal stability score (HeLa Kyoto [4]; [5]) | thermal stability score (HeLa Kyoto [4]; cell cycle stage: mitosis)
MERAESSSTEPAKAIKPIDRKSVHQICSGQVVLSLSTAVKELVENSLDAGATNIDLKLKDYGVDLIEVSDNGCGVEEENFEGLTLKHHTSKIQEFADLTQVETFGFRGEALSSLCALSDVTISTCHASAKVGTRLMFDHNGKIIQKTPYPRPRGTTVSVQQLFSTLPVRHKEFQRNIKKEYAKMVQVLHAYCIISAGIRVSCTNQLGQGKRQPVVCTGGSPSIKENIGSVFGQKQLQSLIPFVQLPPSDSVCEEYGLSCSDALHNLFYISGFISQCTHGVGRSSTDRQFFFINRRPCDPAKVCRLVNEVYHMYNRHQYPFVVLNISVDSECVDINVTPDKRQILLQEEKLLLAVLKTSLIGMFDSDVNKLNVSQQPLLDVEGNLIKMHAADLEKPMVEKQDQSPSLRTGEEKKDVSISRLREAFSLRHTTENKPHSPKTPEPRRSPLGQKRGMLSSSTSGAISDKGVLRPQKEAVSSSHGPSDPTDRAEVEKDSGHGSTSVDSEGFSIPDTGSHCSSEYAASSPGDRGSQEHVDSQEKAPKTDDSFSDVDCHSNQEDTGCKFRVLPQPTNLATPNTKRFKKEEILSSSDICQKLVNTQDMSASQVDVAVKINKKVVPLDFSMSSLAKRIKQLHHEAQQSEGEQNYRKFRAKICPGENQAAEDELRKEISKTMFAEMEIIGQFNLGFIITKLNEDIFIVDQHATDEKYNFEMLQQHTVLQGQRLIAPQTLNLTAVNEAVLIENLEIFRKNGFDFVIDENAPVTERAKLISLPTSKNWTFGPQDVDELIFMLSDSPGVMCRPSRVKQMFASRACRKSVMIGTALNTSEMKKLITHMGEMDHPWNCPHGRPTMRHIANLGVISQN [PMS2] | -0.0345 | 48.3 | 49.7 | -0.029 | 1.02 | 1.74
MERAISPGLLVRALLLLLLLLGLAARTVAAGRARGLPAPTAEAAFGLGAAAAPTSATRVPAAGAVAAAEVTVEDAEALPAAAGEQEPRGPEPDDETELRPRGRSLVIISTLDGRIAALDPENHGKKQWDLDVGSGSLVSSSLSKPEVFGNKMIIPSLDGALFQWDQDRESMETVPFTVESLLESSYKFGDDVVLVGGKSLTTYGLSAYSGKVRYICSALGCRQWDSDEMEQEEDILLLQRTQKTVRAVGPRSGNEKWNFSVGHFELRYIPDMETRAGFIESTFKPNENTEESKIISDVEEQEAAIMDIVIKVSVADWKVMAFSKKGGHLEWEYQFCTPIASAWLLKDGKVIPISLFDDTSYTSNDDVLEDEEDIVEAARGATENSVYLGMYRGQLYLQSSVRISEKFPSSPKALESVTNENAIIPLPTIKWKPLIHSPSRTPVLVGSDEFDKCLSNDKFSHEEYSNGALSILQYPYDNGYYLPYYKRERNKRSTQITVRFLDNPHYNKNIRKKDPVLLLHWWKEIVATILFCIIATTFIVRRLFHPHPHRQRKESETQCQTENKYDSVSGEANDSSWNDIKNSGYISRYLTDFEPIQCLGRGGFGVVFEAKNKVDDCNYAIKRIRLPNRELAREKVMREVKALAKLEHPGIVRYFNAWLEAPPEKWQEKMDEIWLKDESTDWPLSSPSPMDAPSVKIRRMDPFATKEHIEIIAPSPQRSRSFSVGISCDQTSSSESQFSPLEFSGMDHEDISESVDAAYNLQDSCLTDCDVEDGTMDGNDEGHSFELCPSEASPYVRSRERTSSSIVFEDSGCDNASSKEEPKTNRLHIGNHCANKLTAFKPTSSKSSSEATLSISPPRPTTLSLDLTKNTTEKLQPSSPKVYLYIQMQLCRKENLKDWMNGRCTIEERERSVCLHIFLQIAEAVEFLHSKGLMHRDLKPSNIFFTMDDVVKVGDFGLVTAMDQDEEEQTVLTPMPAYARHTGQVGTKLYMSPEQIHGNSYSHKVDIFSLGLILFELLYPFSTQMERVRTLTDVRNLKFPPLFTQKYPCEYVMVQDMLSPSPMERPEAINIIENAVFEDLDFPGKTVLRQRSRSLSSSGTKHSRQSNNSHSPLPSN [EIF2AK3] | 0.0589 | 51 |  | -0.0251 | -0.111 | 0.409
MERASLIQKAKLAEQAERYEDMAAFMKGAVEKGEELSCEERNLLSVAYKNVVGGQRAAWRVLSSIEQKSNEEGSEEKGPEVREYREKVETELQGVCDTVLGLLDSHLIKEAGDAESRVFYLKMKGDYYRYLAEVATGDDKKRIIDSARSAYQEAMDISKKEMPPTNPIRLGLALNFSVFHYEIANSPEEAISLAKTTFDEAMADLHTLSEDSYKDSTLIMQLLRDNLTLWTADNAGEEGGEAPQEPQS [SFN] | 0.311 | 52.6 | 53.1 | 0.358 | -2.86 | -2.25
MERSPGEGPSPSPMDQPSAPSDPTDQPPAAHAKPDPGSGGQPAGPGAAGEALAVLTSFGRRLLVLIPVYLAGAVGLSVGFVLFGLALYLGWRRVRDEKERSLRAARQLLDDEEQLTAKTLYMSHRELPAWVSFPDVEKAEWLNKIVAQVWPFLGQYMEKLLAETVAPAVRGSNPHLQTFTFTRVELGEKPLRIIGVKVHPGQRKEQILLDLNISYVGDVQIDVEVKKYFCKAGVKGMQLHGVLRVILEPLIGDLPFVGAVSMFFIRRPTLDINWTGMTNLLDIPGLSSLSDTMIMDSIAAFLVLPNRLLVPLVPDLQDVAQLRSPLPRGIIRIHLLAARGLSSKDKYVKGLIEGKSDPYALVRLGTQTFCSRVIDEELNPQWGETYEVMVHEVPGQEIEVEVFDKDPDKDDFLGRMKLDVGKVLQASVLDDWFPLQGGQGQVHLRLEWLSLLSDAEKLEQVLQWNWGVSSRPDPPSAAILVVYLDRAQDLPLKKGNKEPNPMVQLSIQDVTQESKAVYSTNCPVWEEAFRFFLQDPQSQELDVQVKDDSRALTLGALTLPLARLLTAPELILDQWFQLSSSGPNSRLYMKLVMRILYLDSSEICFPTVPGCPGAWDVDSENPQRGSSVDAPPRPCHTTPDSQFGTEHVLRIHVLEAQDLIAKDRFLGGLVKGKSDPYVKLKLAGRSFRSHVVREDLNPRWNEVFEVIVTSVPGQELEVEVFDKDLDKDDFLGRCKVRLTTVLNSGFLDEWLTLEDVPSGRLHLRLERLTPRPTAAELEEVLQVNSLIQTQKSAELAAALLSIYMERAEDLPLRKGTKHLSPYATLTVGDSSHKTKTISQTSAPVWDESASFLIRKPHTESLELQVRGEGTGVLGSLSLPLSELLVADQLCLDRWFTLSSGQGQVLLRAQLGILVSQHSGVEAHSHSYSHSSSSLSEEPELSGGPPHITSSAPELRQRLTHVDSPLEAPAGPLGQVKLTLWYYSEERKLVSIVHGCRSLRQNGRDPPDPYVSLLLLPDKNRGTKRRTSQKKRTLSPEFNERFEWELPLDEAQRRKLDVSVKSNSSFMSRERELLGKVQLDLAETDLSQGVARWYDLMDNKDKGSS [ESYT1] | 0.0161 | 49.1 | 50.1 | -0.113 | 2.16 | 4.68
